Consider two molecules from paper PMC5241105 (Science (New York, N.Y.), 2016).

The target of the test is thermolysin cleaved Ebola virus GP (GPTHL) (Ebola virus (EBOV), UniProt Q05320). As to the kind of experiment: BLI. For orientation: BLI is a label-free optical method that tracks binding on a fibre tip over time.

B1: Fab100 (antigen-binding fragment of mAb100) (Fab, V domains shown)
VH: QVQLQESGPGLVKPSDTLSLTCTVSGGSLSSFYWSWIRQPPGKGLEWIGYIYYSGSPNYSPSLESRVTMSVDTTRNQISLKLDSVTAADTAVYYCVRASRSYYWGSYRPTAFDSWGQGTLVTVSS
VL: YELTQPLSVSVSPGQTAIFTCSGDNLGDKYVCWFQQRPGQSPMLLIYQDNKRPSGIPERFSGSNSGNTATLTISGTQSTDEADYYCQTWDSTVVFGGGTKLTVL
B1: the binding result is given as “binds”.

B2: Fab114 (antigen-binding fragment of mAb114) (Fab, V domains shown)
VH: EVQLVESGGGLIQPGGSLRLSCAASGFALRMYDMHWVRQTIDKRLEWVSAVGPSGDTYYADSVKGRFAVSRENAKNSLSLQMNSLTAGDTAIYYCVRSDRGVAGLFDSWGQGILVTVSS
VL: DIQMTQSPSSLSASVGDRITITCRASQAFDNYVAWYQQRPGKVPKLLISAASALHAGVPSRFSGSGSGTHFTLTISSLQPEDVATYYCQNYNSAPLTFGGGTKVEIK
Usually Kd stands for the equilibrium constant for the complex coming apart. Higher therefore signals a looser complex. Consider B2, for which the Kd is 8 nM.
